Measured values reported in the Human Domainome abundance scans (Beltran et al. 2025).

B1: SH3 and PX domain-containing protein 2B, residues 155 to 209; numbered along this chain, A1X283 (parent)
chain: EQYVVVANYQKQESSEISLSVGQVVDIIEKNESGWWFVSTAEEQGWVPATCLEGQ

Variants of: B1
Assay: abundance fitness (aPCA) (normalised: wild type 0, dead -1); higher = more abundant; growth selection in yeast, the domain comes from the species named
Conditions: Homo sapiens

Abundance fitness, by site and new letter:
L19: A -0.482, P -0.831, D -0.894, K -0.957, M -0.545, Y -0.665, T -0.604, Q -0.865, F -0.441, W -0.899, N -0.966, C -0.035, E -0.768, I -0.149, G -0.838
G22: L -0.921, I -1.05, N -0.33, S -0.503, K -0.789, C -0.638, E -0.673, V -0.945, Q -0.512, F -0.91, H -0.581, R -0.549, P -0.83, D -0.246, T -0.588, M -0.617, Y -0.498, A -0.5, W -0.834
E16: G 0.057, V -0.92, C -0.505, I -0.692, T -0.178, N -0.2, M -0.449, K -0.16, P -0.667, Q -0.008, D -0.211, A -0.312, Y -0.853, W -0.55, F -0.868, L -0.805, S -0.177
N8: H -0.102, Q -0.105, P -0.069, E -0.068, W -0.524, K -0.083, F -0.26, Y -0.448, L -0.447, I -0.501, M -0.305, G 0.012, D 0.04, T 0.018, A 0.093, V -0.296
S15: F -0.244, N -0.061, M -0.18, D 0.02, E -0.172, L -0.27, C -0.063, H 0.055, W -0.049, I -0.201, Q 0.103, R 0.04, G -0.073, A -0.01, V -0.119, P -0.121, T -0.103, Y -0.092
V24: A -0.008, I -0.026, D -0.277, N 0.001, F -0.239, K 0.069, E 0.027, M -0.137, Q -0.215, W -0.075, T -0.109, G -0.157, L -0.128, S -0.071, H -0.284, R -0.135, P -0.135, Y -0.263, C -0.035
Q10: G -0.322, I -0.128, L -0.044, T -0.058, H -0.145, D -0.266, R -0.071, Y -0.333, C -0.135, A 0.003, E 0.125, F -0.257, K -0.192, W -0.334, M -0.476
Y9: M -0.508, E -0.597, K -0.619, G -0.81, S -0.484, R -0.21, T -0.312, C -0.648, W 0.094, V -0.249, F 0.011, D -0.491, N -0.616, A -0.774, I -0.809, Q -0.744
A7: F -0.076, I -0.32, Y 0.025, S -0.052, N -0.09, G -0.098, Q -0.106, C -0.25, W -0.286, H -0.394, R -0.066, M -0.15, K -0.024, E -0.088, D -0.046, L -0.101
S18: F -0.157, I -0.528, R -0.646
V5: Q -0.994, G -0.37, K -0.552, M -0.418, R -1.04, D -0.999, I -0.379, P -0.892, F -0.875, H -1.08, N -0.946, L -0.919, T -0.309, S -0.099, C -0.108, E -0.939, W -0.938
S20: H -0.01, A -0.13, D -0.317, Y -0.143, F -0.085, W -0.165, G -0.239, E 0.09, P -0.536, C -0.209, V -0.077, Q -0.126, L 0.015, K -0.075, T -0.055, R -0.082
S14: M -0.05, G -0.071, C -0.018, T -0.036, L 0.027, N 0.083, H -0.125, Q -0.347, A -0.13, K 0.026, P -0.005, V 0.014, W -0.171, F -0.458, R -0.073, I 0.014, Y -0.073
Q12: V 0.02, R -0.066, M -0.182, S -0.038, N -0.183, Y -0.313, F 0.001, I -0.19, H -0.114, K 0.013, D -0.241, G -0.14, P -0.276, E -0.195, C -0.228
V21: Y -0.444, P -0.315, C -0.025, N -0.342, E 0.096, K 0.092, T -0.061, A -0.043, D -0.593, Q -0.036, W -0.566, L -0.188, S -0.238, G -0.453, R -0.005, I -0.166, M -0.066, F -0.286
E13: Y -0.248, A -0.359, V -0.065, S -0.158, L -0.178, F -0.229, I -0.037, R -0.182, M -0.025, K -0.015, W -0.467, G -0.074, C -0.19, N -0.046, H -0.154, T -0.104, D -0.111, P -0.598
Q23: I -0.308, L -0.288, E 0.001, P -0.978, M -0.039, T -0.085, D -0.034, H -0.136, N -0.037, G -0.263, F -0.741, R -0.405, W -0.292
V6: G -0.151, C -0.151, Q -0.199, Y -0.262, E -0.366, P -0.529, L -0.199, A 0.049, F -0.131, I 0.054, N -0.214, S -0.087, K 0.056, W -0.326
V25: H -0.656, K -0.902, R -0.945, L -0.378, F -0.964, M -0.801, S -0.95, P -0.825, E -0.752, C -0.393, I -0.317, G -0.878, N -0.95
K11: E -0.183, Y -0.465, W -0.496, R 0.069, M -0.115, A -0.106, G -0.015, L -0.433, S -0.072, P -0.034, F -0.689, H 0.064, N -0.33, T -0.357, Q -0.132
V4: Y 0.046, Q -0.018, W -0.271, S 0.083, N -0.139, R 0.077, T 0.193
I17: H -0.715, K -0.692, P -0.769, D -0.889, F -0.597, L -0.055, E -0.99, Q -0.672, G -0.863, A -0.201, C 0.014, M -0.053, T -0.114, R -0.332, V -0.048, S -0.576, N -0.733
